Substrate in series [1]: CN(C)c1ccc2nc3ccc(=[N+](C)C)cc-3sc2c1
Briefly: purified protein, by the assay type. The conditions noted are these: other: electron acceptor + 225 μM cellobiose, 0.1M sodium phosphate buffer, pH 7.5, 40° C.

Substrate in series [2]: OC[C@H]1O[C@H](O[C@H]2[C@H](O)[C@@H](O)[C@H](O)O[C@@H]2CO)[C@H](O)[C@@H](O)[C@@H]1O
Briefly: purified protein, by the assay type. As to conditions: other: sugar + 90 μM DCPIP, 0.1M sodium phosphate buffer, pH 7.5, 40° C.

Substrate in series [3]: CC(C)(C)C1=CC(=O)C(=O)C(C(C)(C)C)=C1
Briefly: purified protein, by the assay type. As to conditions: other: electron acceptor + 225 μM cellobiose, 0.1M sodium phosphate buffer, pH 7.5, 40° C.

Substrate in series [4]: OC[C@H]1O[C@@H](O[C@H]2[C@H](O)[C@@H](O)[C@H](O[C@H]3[C@H](O)[C@@H](O)C(O)O[C@@H]3CO)O[C@@H]2CO)[C@H](O)[C@@H](O)[C@@H]1O
Nature of the series: purified protein, by the assay type. As to conditions: other: sugar + 90 μM DCPIP, 0.1M sodium phosphate buffer, pH 7.5, 40° C.

Substrate in series [5]: OC[C@H]1O[C@@H](O[C@H]2[C@H](O)[C@@H](O)[C@H](O[C@H]3[C@H](O)[C@@H](O)[C@H](O[C@H]4[C@H](O)[C@@H](O)C(O)O[C@@H]4CO)O[C@@H]3CO)O[C@@H]2CO)[C@H](O)[C@@H](O)[C@@H]1O
Nature of the series: purified protein, by the assay type. The conditions noted are these: other: sugar + 90 μM DCPIP, 0.1M sodium phosphate buffer, pH 7.5, 40° C.

Substrate in series [6]: OC[C@H]1O[C@@H](O[C@H]2[C@H](O)[C@@H](O)C(O)O[C@@H]2CO)[C@H](O)[C@@H](O)[C@@H]1O
Nature of the series: purified protein, by the assay type. The conditions noted are these: other: sugar + 90 μM DCPIP, 0.1M sodium phosphate buffer, pH 7.5, 40° C.

Substrate in series [7]: O=C1C(Cl)=CC(=Nc2ccc(O)cc2)C=C1Cl
Briefly: purified protein, by the assay type. As to conditions: other: electron acceptor + 225 μM cellobiose, 0.1M sodium phosphate buffer, pH 7.5, 40° C.

Substrate in series [8]: OC[C@H]1O[C@@H](O[C@H]2[C@H](O)[C@@H](O)C(O)O[C@@H]2CO)[C@H](O)[C@@H](O)[C@H]1O
Briefly: purified protein, by the assay type. As to conditions: other: sugar + 90 μM DCPIP, 0.1M sodium phosphate buffer, pH 7.5, 40° C.

Substrate in series [9]: OC[C@@H](O)[C@@H](O[C@@H]1O[C@H](CO)[C@@H](O[C@@H]2O[C@H](CO)[C@@H](O[C@@H]3O[C@H](CO)[C@@H](O[C@@H]4O[C@H](CO)[C@@H](O[C@@H]5O[C@H](CO)[C@@H](O)[C@H](O)[C@H]5O)[C@H](O)[C@H]4O)[C@H](O)[C@H]3O)[C@H](O)[C@H]2O)[C@H](O)[C@H]1O)[C@H](O)[C@@H](O)CO
Briefly: Coupled cellobiose oxidase/DCPIP assay for cellulases. The conditions noted are these: other: CBH II; reduced cellodextrin substrate. It counts as biochemical. From the text: (§1) The ability of the cellobiose oxidase to oxidize cellodextrins by means of an electron acceptor was utilized in an assay for cellulases. […] With this assay the kinetic constants for reduced cellodextrins of 5 different cellulases have been determined (table 2). […] The enzymes show very different substrate specificity, some of them requiring quite long substrates making it impossible to use the umbelliferyl cellobiosides and lactosides available for steady state kinetic. […] The inhibition constants were determined for two cellulases using the developed assay.

Substrate in series [10]: OC[C@@H](O)[C@@H](O[C@@H]1O[C@H](CO)[C@@H](O[C@@H]2O[C@H](CO)[C@@H](O[C@@H]3O[C@H](CO)[C@@H](O)[C@H](O)[C@H]3O)[C@H](O)[C@H]2O)[C@H](O)[C@H]1O)[C@H](O)[C@@H](O)CO
The series is described as above. Type of series: biochemical. The conditions noted are these: other: CBH II; reduced cellodextrin substrate.
Source text: as §1

Substrate in series [11]: OC[C@@H](O)[C@@H](O[C@@H]1O[C@H](CO)[C@@H](O[C@@H]2O[C@H](CO)[C@@H](O[C@@H]3O[C@H](CO)[C@@H](O[C@@H]4O[C@H](CO)[C@@H](O)[C@H](O)[C@H]4O)[C@H](O)[C@H]3O)[C@H](O)[C@H]2O)[C@H](O)[C@H]1O)[C@H](O)[C@@H](O)CO
Described as above. It counts as biochemical. As to conditions: other: CBH II; reduced cellodextrin substrate.
Source text: as §1

B1: Humicola insolens cellobiose oxidase (CBO, 92 kDa, pI 4.0) (Mycothermus thermophilus) (protein)
chain: QATGDAYTDSETGIKFQTWSPDPQFTFGLALPPDALEKDATEYIGLLRCTRADPSDPGYCGLSHGQVGQMTQSLLLVAWAYENQVYTSFRYATGYTLPGLYTGNAKLTQLSVNITDTSFELIYRCENCFSWEHEGSTGSSSTSQGYLVLGRASARRGVVGPTCPDTATFGFHDNGFGQWGVGLENAVSEQYSEWASLPGLTVETTCEGSGPGEAQCVPAPEETYDYIVVGAGAGGIPVADKLSEAGHKVLLIEKGPPSTGRWQGTMKPEWLEGTDLTRFDVPGLCNQIWVDSAGIACTDTDQMAGCVLGGGTAVNAGLWWKPIDLDWDENFPEGWHSQDLAAATERVFERIPGTWHPSMDGKLYRDEGYKVLSSGLAESGWKEVVANEVPNEKNRTFAHTHFMFAGGERNGPLATYLVSADARENFSLWTNTAVRRAVRTGGKVTGVELECLTDGGYSGIVKLNEGGGVIFSAGAFGSAKLLFRSGIGPEDQLRVVASSKDGEDFIDEKDWIKLPVGYNLIDHLNTDLILTHPDVVFYDFYEAWTTPIEADKQLYLEQRSGILAQAAPNIGPMMWEQVTPSDGITRQFQWTARVEGDSRFTNSSHAMTLSQYLGRGVVSRGRATITQGLVTTVAEHPYLHNAGDKEAVIQGIKNLIESLNVIPNITWVLPPPGSTVEEYVDSLLVSASARRSNHWMGTAKLGTDDGRYGGTSVVDLDTKVYGTDNLFVVDASIFPGMSTGNPSAMIVIAAEQAAERILKLRK
As for B1, the Km – broadly, the substrate concentration at which the rate is half of its maximum – in series [1] was 18 µM; in [2], 11,000 μM; in series [3], 132 µM; in [4] it was 19 µM; in series [5] it was 21 µM; in series [6], 11 µM. The Km in series [7] worked out at 26 µM; in [8], 51 µM. Also, the kcat (usually the number of substrate molecules converted per active site and unit of time at saturation) in series [1] stood at 1.85 s⁻¹; in series [2] it was 0.83 s⁻¹; in series [6], 10 s⁻¹; in [7], 12 s⁻¹; in series [8] it was 10 s⁻¹.

B2: CBH II (cellulase) (Mycothermus thermophilus) (protein)
chain: APVVEERQNCAPTWGQCGGIGFNGPTCCQSGSTCVKQNDWYSQCLPGSQVTTTSTTSTSSSSTTSRATSTTRTGGVTSITTAPTRTVTIPGGATTTASYNGNPFEGVQLWANNYYRSEVHTLAIPQITDPALRAAASAVAEVPSFQWLDRNVTVDTLLVETLSEIRAANQAGANPPYAAQIVVYDLPDRDCAAAASNGEWAIANNGANNYKGYINRIREILISFSDVRTILVIEPDSLANMVTNMNVAKCSGAASTYRELTIYALKQLDLPHVAMYMDAGHAGWLGWPANIQPAAELFAKIYEDAGKPRAVRGLATNVANYNAWSISSPPPYTSPNPNYDEKHYIEAFRPLLEARGFPAQFIVDQGRSGKQPTGQKEWGHWCNAIGTGFGMRPTANTGHQYVDAFVWVKPGGECDGTSDTTAARYDYHCGLEDALKPAPEAGQWFQAYFEQLLRNANPPF
With B2, the Michaelis constant (Km) in series [9] stood at 4.7 µM; in [10], 490 µM; in series [11] it was 3 µM.

For the origin of these results see US5866392A, “Cellobiose oxidase, and enzymatic agent and a process for treating paper pulp” (priority 1992, dated 1999).
